One experiment concerns the target T1, human PAC1 receptor (human, UniProt P41586 21-468).
T1 sequence: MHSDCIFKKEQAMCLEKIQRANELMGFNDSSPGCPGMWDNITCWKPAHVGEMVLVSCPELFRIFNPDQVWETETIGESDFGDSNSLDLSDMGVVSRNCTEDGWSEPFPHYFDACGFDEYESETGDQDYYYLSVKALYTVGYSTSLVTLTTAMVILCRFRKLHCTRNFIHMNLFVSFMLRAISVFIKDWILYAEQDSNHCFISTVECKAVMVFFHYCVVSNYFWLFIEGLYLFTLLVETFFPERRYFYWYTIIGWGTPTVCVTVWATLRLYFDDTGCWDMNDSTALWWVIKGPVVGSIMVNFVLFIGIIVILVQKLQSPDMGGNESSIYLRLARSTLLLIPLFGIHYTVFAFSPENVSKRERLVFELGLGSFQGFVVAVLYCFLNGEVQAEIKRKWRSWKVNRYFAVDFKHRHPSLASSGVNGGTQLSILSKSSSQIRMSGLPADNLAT
Put plainly: cell-based or functional assay.

The next experiment deals with human CGRP receptor (human, UniProt Q16602 23-461; O60894 27-148). Put plainly: cell-based or functional assay.
Chain of human CGRP receptor (Q16602 23-461 limits assumed, chain 1 of 2): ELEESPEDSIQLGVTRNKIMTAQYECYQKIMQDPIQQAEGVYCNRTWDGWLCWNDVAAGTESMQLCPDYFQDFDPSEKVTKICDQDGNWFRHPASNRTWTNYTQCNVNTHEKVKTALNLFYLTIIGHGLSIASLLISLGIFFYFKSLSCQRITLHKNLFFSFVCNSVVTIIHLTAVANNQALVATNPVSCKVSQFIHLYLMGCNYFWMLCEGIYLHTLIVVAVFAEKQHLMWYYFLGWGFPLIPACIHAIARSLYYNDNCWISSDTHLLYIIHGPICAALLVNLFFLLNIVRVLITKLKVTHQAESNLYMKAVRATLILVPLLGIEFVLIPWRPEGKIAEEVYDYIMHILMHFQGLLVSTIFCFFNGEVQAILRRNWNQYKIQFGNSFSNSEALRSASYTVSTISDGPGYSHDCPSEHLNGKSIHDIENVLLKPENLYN
Chain of human CGRP receptor (O60894 27-148 limits assumed, chain 2 of 2): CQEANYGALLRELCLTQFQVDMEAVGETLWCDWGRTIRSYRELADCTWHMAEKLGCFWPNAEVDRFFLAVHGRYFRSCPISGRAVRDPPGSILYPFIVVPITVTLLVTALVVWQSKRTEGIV

B1: iPS:327286 (bispecific antibody, human IgG1, kappa, lambda, N297G)
light 1: DIQLTQSPSFLSASVGDRVTITCRASQSIGRSLHWYQQKPGKAPKLLIKYASQSLSGVPSRFSGSGSGTEFTLTISSLQPEDFATYYCHQSSRLPFTFGEGTKVDIKRTVAAPSVFIFPPSDEQLKSGTASVVCLLNNFYPREAKVQWKVDNALQSGNSQESVTEQDSKDSTYSLESTLTLSKADYEKHKVYACEVTHQGLSSPVTKSFNRGEC
heavy 1: not shown
light 2: QSVLTQPPSVSAAPGQKVTISCSGSSSNIGNNYVSWYQQLPGTAPKLLIYDNNKRPSGIPDRFSGSKSGTSTTLGITGLQTGDEADYYCGTWDSRLSAVVFGKGTKLTVLGQPKANPTVTLFPPSSEELQANKATLVCLISDFYPGAVTVAWKADGSPVKAGVETTKPSKQSNNKYAAKSYLSLTPEQWKSHRSYSCQVTHEGSTVEKTVAPTECS
heavy 2: QVQLVESGGGVVQPGRSLRLSCAASGFTFSSFGMHWVRQAPGKELEWVAVISFDGSIKYSVDSVKGRFTISRDNSKNTLFLQMNSLRAEDTAVYYCARDRLNYYDSSGYYHYKYYGMAVWGQGTTVTVSSASTKGPSVFPLAPSSKSTSGGTAALGCLVKDYFPEPVTVSWNSGALTSGVHTFPAVLQSSGLYSLESVVTVPSSSLGTQTYICNVNHKPSNTKVDKKVEPKSCDKTHTCPPCPAPELLGGPSVFLFPPKPKDTLMISRTPEVTCVVVDVSHEDPEVKFNWYVDGVEVHNAKTKPCEEQYGSTYRCVSVLTVLHQDWLNGKEYKCKVSNKALPAPIEKTISKAKGQPREPQVYTLPPSRKEMTKNQVSLTCLVKGFYPSDIAVEWESNGQPENNYKTTPPVLKSDGSFFLYSKLTVDKSRWQQGNVFSCSVMHEALHNHYTQKSLSLSPGK
Take B1: the “% inhibition of human PAC1” value in the experiment with human PAC1 receptor is 23%. Further, the “% inhibition of human CGRPR” value with human CGRP receptor came to 85%.

B2: iPS:327679 (bispecific antibody, human IgG1, kappa, N297G)
light 1: DIQLTQSPSFLSASVGDRVTITCRASQSIGRSLHWYQQKPGKAPKLLIKYASQSLSGVPSRFSGSGSGTEFTLTISSLQPEDFATYYCHQSSRLPFTFGPGTKVDIKRTVAAPSVFIFPPSDEQLKSGTASVVCLLNNFYPREAKVQWKVDNALQSGNSQESVTEQDSKDSTYSLESTLTLSKADYEKHKVYACEVTHQGLSSPVTKSFNRGEC
heavy 1: not shown
light 2: EIVLTQSPGTLSLSPGERATLSCRASQSVSSGYLTWYQQKPGQAPRLLIYGASSRATGIPDRFSGSGSGTDFTLTISRLEPEDFAVYYCQQYGNSLSRFGQGTKLEIKRTVAAPSVFIFPPSDEQLKSGTASVVCLLNNFYPREAKVQWKVDNALQSGNSQESVTEQDSKDSTYSLKSTLTLSKADYEKHKVYACEVTHQGLSSPVTKSFNRGEC
heavy 2: not shown
With B2, in the experiment with human PAC1 receptor, the “% inhibition of human PAC1” value is 23%. Further, the “% inhibition of human CGRPR” value with human CGRP receptor is 86%.

B3: iPS:327287 (bispecific antibody, human IgG1, kappa, lambda, N297G)
light 1: EIVLTQSPATLSLSPGERATLSCRASQSVGRSLHWYQQKPGQAPRLLIKYASQSLSGIPARFSGSGSGTDFTLTISSLEPEDFAVYYCHQSSRLPFTFGEGTKVDIKRTVAAPSVFIFPPSDEQLKSGTASVVCLLNNFYPREAKVQWKVDNALQSGNSQESVTEQDSKDSTYSLESTLTLSKADYEKHKVYACEVTHQGLSSPVTKSFNRGEC
heavy 1: not shown
light 2: QSVLTQPPSVSAAPGQKVTISCSGSSSNIGNNYVSWYQQLPGTAPKLLIYDNNKRPSGIPDRFSGSKSGTSTTLGITGLQTGDEADYYCGTWDSRLSAVVFGKGTKLTVLGQPKANPTVTLFPPSSEELQANKATLVCLISDFYPGAVTVAWKADGSPVKAGVETTKPSKQSNNKYAAKSYLSLTPEQWKSHRSYSCQVTHEGSTVEKTVAPTECS
heavy 2: QVQLVESGGGVVQPGRSLRLSCAASGFTFSSFGMHWVRQAPGKELEWVAVISFDGSIKYSVDSVKGRFTISRDNSKNTLFLQMNSLRAEDTAVYYCARDRLNYYDSSGYYHYKYYGMAVWGQGTTVTVSSASTKGPSVFPLAPSSKSTSGGTAALGCLVKDYFPEPVTVSWNSGALTSGVHTFPAVLQSSGLYSLESVVTVPSSSLGTQTYICNVNHKPSNTKVDKKVEPKSCDKTHTCPPCPAPELLGGPSVFLFPPKPKDTLMISRTPEVTCVVVDVSHEDPEVKFNWYVDGVEVHNAKTKPCEEQYGSTYRCVSVLTVLHQDWLNGKEYKCKVSNKALPAPIEKTISKAKGQPREPQVYTLPPSRKEMTKNQVSLTCLVKGFYPSDIAVEWESNGQPENNYKTTPPVLKSDGSFFLYSKLTVDKSRWQQGNVFSCSVMHEALHNHYTQKSLSLSPGK
As for B3, in the experiment with human PAC1 receptor, the “% inhibition of human PAC1” value was determined as 71%. Also, the “% inhibition of human CGRPR” value in the experiment with human CGRP receptor is 86%.

B4: iPS:327288 (bispecific antibody, human IgG1, kappa, lambda, N297G)
light 1: not shown
heavy 1: not shown
light 2: QSVLTQPPSVSAAPGQKVTISCSGSSSNIGNNYVSWYQQLPGTAPKLLIYDNNKRPSGIPDRFSGSKSGTSTTLGITGLQTGDEADYYCGTWDSRLSAVVFGGGTKLTVLGQPKANPTVTLFPPSSEELQANKATLVCLISDFYPGAVTVAWKADGSPVKAGVETTKPSKQSNNKYAAKSYLSLTPEQWKSHRSYSCQVTHEGSTVEKTVAPTECS
heavy 2: QVQLVESGGGVVQPGRSLRLSCAASGFTFSSFGMHWVRQAPGKGLEWVAVISFDGSIKYSVDSVKGRFTISRDNSKNTLFLQMNSLRAEDTAVYYCARDRLNYYDSSGYYHYKYYGMAVWGQGTTVTVSSASTKGPSVFPLAPSSKSTSGGTAALGCLVKDYFPEPVTVSWNSGALTSGVHTFPAVLQSSGLYSLESVVTVPSSSLGTQTYICNVNHKPSNTKVDKKVEPKSCDKTHTCPPCPAPELLGGPSVFLFPPKPKDTLMISRTPEVTCVVVDVSHEDPEVKFNWYVDGVEVHNAKTKPCEEQYGSTYRCVSVLTVLHQDWLNGKEYKCKVSNKALPAPIEKTISKAKGQPREPQVYTLPPSRKKMTKNQVSLTCLVKGFYPSDIAVEWESNGQPENNYKTTPPVLKSDGSFFLYSKLTVDKSRWQQGNVFSCSVMHEALHNHYTQKSLSLSPGK
For B4, in the experiment with human PAC1 receptor, the “% inhibition of human PAC1” value turned out to be 88%. Besides, the “% inhibition of human CGRPR” value with human CGRP receptor is 67%.

B5: iPS:327289 (bispecific antibody, human IgG1, kappa, lambda, N297G)
light 1: not shown
heavy 1: not shown
light 2: QSVLTQPPSVSAAPGQKVTISCSGSSSNIGNNYVSWYQQLPGTAPKLLIYDNNKRPSGIPDRFSGSKSGTSTTLGITGLQTGDEADYYCGTWDSRLSAVVFGGGTKLTVLGQPKANPTVTLFPPSSEELQANKATLVCLISDFYPGAVTVAWKADGSPVKAGVETTKPSKQSNNKYAAKSYLSLTPEQWKSHRSYSCQVTHEGSTVEKTVAPTECS
heavy 2: QVQLVESGGGVVQPGRSLRLSCAASGFTFSSFGMHWVRQAPGKGLEWVAVISFDGSIKYSVDSVKGRFTISRDNSKNTLFLQMNSLRAEDTAVYYCARDRLNYYDSSGYYHYKYYGMAVWGQGTTVTVSSASTKGPSVFPLAPSSKSTSGGTAALGCLVKDYFPEPVTVSWNSGALTSGVHTFPAVLQSSGLYSLESVVTVPSSSLGTQTYICNVNHKPSNTKVDKKVEPKSCDKTHTCPPCPAPELLGGPSVFLFPPKPKDTLMISRTPEVTCVVVDVSHEDPEVKFNWYVDGVEVHNAKTKPCEEQYGSTYRCVSVLTVLHQDWLNGKEYKCKVSNKALPAPIEKTISKAKGQPREPQVYTLPPSRKKMTKNQVSLTCLVKGFYPSDIAVEWESNGQPENNYKTTPPVLKSDGSFFLYSKLTVDKSRWQQGNVFSCSVMHEALHNHYTQKSLSLSPGK
In the case of B5, in the experiment with human PAC1 receptor, the “% inhibition of human PAC1” value turned out to be 75%. The “% inhibition of human CGRPR” value with human CGRP receptor is 72%.

B6: iPS:327281 (bispecific antibody, human IgG1, kappa, lambda, N297G)
light 1: not shown
heavy 1: not shown
light 2: QSVLTQPPSVSAAPGQKVTISCSGSSSNIGNNYVSWYQQLPGTAPKLLIYDNNKRPSGIPDRFSGSKSGTSTTLGITGLQTGDEADYYCGTWDSRLSAVVFGGGTKLTVLGQPKANPTVTLFPPSSEELQANKATLVCLISDFYPGAVTVAWKADGSPVKAGVETTKPSKQSNNKYAAKSYLSLTPEQWKSHRSYSCQVTHEGSTVEKTVAPTECS
heavy 2: QVQLVESGGGVVQPGRSLRLSCAASGFTFSSFGMHWVRQAPGKGLEWVAVISFDGSIKYSVDSVKGRFTISRDNSKNTLFLQMNSLRAEDTAVYYCARDRLNYYDSSGYYHYKYYGMAVWGQGTTVTVSSASTKGPSVFPLAPSSKSTSGGTAALGCLVKDYFPEPVTVSWNSGALTSGVHTFPAVLQSSGLYSLESVVTVPSSSLGTQTYICNVNHKPSNTKVDKKVEPKSCDKTHTCPPCPAPELLGGPSVFLFPPKPKDTLMISRTPEVTCVVVDVSHEDPEVKFNWYVDGVEVHNAKTKPCEEQYGSTYRCVSVLTVLHQDWLNGKEYKCKVSNKALPAPIEKTISKAKGQPREPQVYTLPPSRKEMTKNQVSLTCLVKGFYPSDIAVEWESNGQPENNYKTTPPVLKSDGSFFLYSKLTVDKSRWQQGNVFSCSVMHEALHNHYTQKSLSLSPGK
In the case of B6, the “% inhibition of human PAC1” value with human PAC1 receptor came to 50%. Also, the “% inhibition of human CGRPR” value in the experiment with human CGRP receptor is 82%.

B7: iPS:327680 (bispecific antibody, human IgG1, kappa, N297G)
light 1: EIVLTQSPATLSLSPGERATLSCRASQSVGRSLHWYQQKPGQAPRLLIKYASQSLSGIPARFSGSGSGTDFTLTISSLEPEDFAVYYCHQSSRLPFTFGPGTKVDIKRTVAAPSVFIFPPSDEQLKSGTASVVCLLNNFYPREAKVQWKVDNALQSGNSQESVTEQDSKDSTYSLESTLTLSKADYEKHKVYACEVTHQGLSSPVTKSFNRGEC
heavy 1: not shown
light 2: EIVLTQSPGTLSLSPGERATLSCRASQSVSSGYLTWYQQKPGQAPRLLIYGASSRATGIPDRFSGSGSGTDFTLTISRLEPEDFAVYYCQQYGNSLSRFGQGTKLEIKRTVAAPSVFIFPPSDEQLKSGTASVVCLLNNFYPREAKVQWKVDNALQSGNSQESVTEQDSKDSTYSLKSTLTLSKADYEKHKVYACEVTHQGLSSPVTKSFNRGEC
heavy 2: not shown
For the molecule B7, in the experiment with human PAC1 receptor, the “% inhibition of human PAC1” value came out at 92%. Moreover, the “% inhibition of human CGRPR” value with human CGRP receptor was found to be 88%.

These data come from patent US20170306033A1 (Amgen, published 2017).
